Like-named read-outs stand apart in the source and are kept apart here.
B1: H237-MB147/MRAL-k0 (antibody, mouse IgG1, kappa)
heavy: QVQLQESGPGLVKPSETLSLTCAVSGHSISHDHAWSWVRQPPGEGLEWIGFISYSGITNYNPSLQGRVTISRDNSKNTLYLQMNSLRAEDTAVYYCARSLARTTAMDYWGEGTLVTVSSAKTTPPSVYPLAPGSAAQTNSMVTLGCLVKGYFPEPVTVTWNSGSLSSGVHTFPAVLQSDLYTLSSSVTVPSSTWPSETVTCNVAHPASSTKVDKKIVPRDCGCKPCICTVPEVSSVEIFPPKPKDVLTITLTPKVTCVVVDISKDDPEVQFSWFVDDVEVHTAQTQPREEQFNSTFRSVSELPIMHQDWLNGKEFKCRVNSAAFPAPIEKTISKTKGRPKAPQVYTIPPPKEQMAKDKVSLTCMITDFFPEDITVEWQWNGQPAENYKNTQPIMDTDGSYFVYSKLNVQKSNWEAGNTFTCSVLHEGLHNHHTEKSLSHSPGK
light: not shown
notes: copies: 2 + 2
B2: H237-MB722/MRAL-k0 (antibody, mouse IgG1, kappa)
heavy: QVQLQESGPGLVKPSETLSLTCAVSGHSISHDHAWSWVRQPPGEGLEWIGFISYSGITNYNPSLQGRVTISRDNSKNTLYLQMNSLRAEDTAVYYCARSLARTTAMDYWGEGTLVTVSSAKTTPPSVYPLAPGSAAQTNSMVTLGCLVKGYFPEPVTVTWNSGSLSSGVHTFPAVLQSDLYTLSSSVTVPSSTWPSETVTCNVAHPASSTKVDKKIVPRDCGCKPCICEAYEEEDVFIFPPKPKDVLTITLTPKVTCVVVDISKDDPEVQFSWFVDDVEVHTAQTQPREEQFNSTFRSVSELPIMHQDWLNGKEFKCRVNSAAFPAPIEKTISKTKGRPKAPQVYTIPPPKEQMAKDKVSLTCMITDFFPEDITVEWQWNGQPAENYKNTQPIMDTDGSYFVYSKLNVQKSNWEAGNTFTCSVLHEGLHNHHTEKSLSHSPGK
light: not shown
notes: copies: 2 + 2
B3: H237-MB159/MRAL-k0 (antibody, mouse IgG1, kappa)
heavy: QVQLQESGPGLVKPSETLSLTCAVSGHSISHDHAWSWVRQPPGEGLEWIGFISYSGITNYNPSLQGRVTISRDNSKNTLYLQMNSLRAEDTAVYYCARSLARTTAMDYWGEGTLVTVSSAKTTPPSVYPLAPGSAAQTNSMVTLGCLVKGYFPEPVTVTWNSGSLSSGVHTFPAVLQSDLYTLSSSVTVPSSTWPSETVTCNVAHPASSTKVDKKIVPRDCGCKPCICTVPEVSSVTIFPPKPKDVLTITLTPKVTCVVVDISKDDPEVQFSWFVDDVEVHTAQTQPREEQFNSTFRSVSELPIMHQDWLNGKEFKCRVNSAAFPAPIEKTISKTKGRPKAPQVYTIPPPKEQMAKDKVSLTCMITDFFPEDITVEWQWNGQPAENYKNTQPIMDTDGSYFVYSKLNVQKSNWEAGNTFTCSVLHEGLHNHHTEKSLSHSPGK
light: not shown
notes: copies: 2 + 2
B4: H237-MB724/MRAL-k0 (antibody, mouse IgG1, kappa)
heavy: QVQLQESGPGLVKPSETLSLTCAVSGHSISHDHAWSWVRQPPGEGLEWIGFISYSGITNYNPSLQGRVTISRDNSKNTLYLQMNSLRAEDTAVYYCARSLARTTAMDYWGEGTLVTVSSAKTTPPSVYPLAPGSAAQTNSMVTLGCLVKGYFPEPVTVTWNSGSLSSGVHTFPAVLQSDLYTLSSSVTVPSSTWPSETVTCNVAHPASSTKVDKKIVPRDCGCKPCICENYEEEDVFIFPPKPKDVLTITLTPKVTCVVVDISKDDPEVQFSWFVDDVEVHTAQTQPREEQFNSTFRSVSELPIMHQDWLNGKEFKCRVNSAAFPAPIEKTISKTKGRPKAPQVYTIPPPKEQMAKDKVSLTCMITDFFPEDITVEWQWNGQPAENYKNTQPIMDTDGSYFVYSKLNVQKSNWEAGNTFTCSVLHEGLHNHHTEKSLSHSPGK
light: not shown
notes: copies: 2 + 2
B5: H237-MB725/MRAL-k0 (antibody, mouse IgG1, kappa)
heavy: QVQLQESGPGLVKPSETLSLTCAVSGHSISHDHAWSWVRQPPGEGLEWIGFISYSGITNYNPSLQGRVTISRDNSKNTLYLQMNSLRAEDTAVYYCARSLARTTAMDYWGEGTLVTVSSAKTTPPSVYPLAPGSAAQTNSMVTLGCLVKGYFPEPVTVTWNSGSLSSGVHTFPAVLQSDLYTLSSSVTVPSSTWPSETVTCNVAHPASSTKVDKKIVPRDCGCKPCICETYEEEDVFIFPPKPKDVLTITLTPKVTCVVVDISKDDPEVQFSWFVDDVEVHTAQTQPREEQFNSTFRSVSELPIMHQDWLNGKEFKCRVNSAAFPAPIEKTISKTKGRPKAPQVYTIPPPKEQMAKDKVSLTCMITDFFPEDITVEWQWNGQPAENYKNTQPIMDTDGSYFVYSKLNVQKSNWEAGNTFTCSVLHEGLHNHHTEKSLSHSPGK
light: not shown
notes: copies: 2 + 2
B6: H237-MB258/MRAL-k0 (antibody, mouse IgG1, kappa)
heavy: QVQLQESGPGLVKPSETLSLTCAVSGHSISHDHAWSWVRQPPGEGLEWIGFISYSGITNYNPSLQGRVTISRDNSKNTLYLQMNSLRAEDTAVYYCARSLARTTAMDYWGEGTLVTVSSAKTTPPSVYPLAPGSAAQTNSMVTLGCLVKGYFPEPVTVTWNSGSLSSGVHTFPAVLQSDLYTLSSSVTVPSSTWPSETVTCNVAHPASSTKVDKKIVPRDCGCKPCICTVPEVSSVFIFPPKPKDVLTITLTPKVTCVVVDISKDDPEVQFSWFVDDVEVHTAQTQPREEQFNHTFRSVSELPIMHQDWLNGKEFKCRVNSAAFPAPIEKTISKTKGRPKAPQVYTIPPPKEQMAKDKVSLTCMITDFFPEDITVEWQWNGQPAENYKNTQPIMDTDGSYFVYSKLNVQKSNWEAGNTFTCSVLHEGLHNHHTEKSLSHSPGK
light: not shown
notes: copies: 2 + 2
B7: H237-MB208/MRAL-k0 (antibody, mouse IgG1, kappa)
heavy: QVQLQESGPGLVKPSETLSLTCAVSGHSISHDHAWSWVRQPPGEGLEWIGFISYSGITNYNPSLQGRVTISRDNSKNTLYLQMNSLRAEDTAVYYCARSLARTTAMDYWGEGTLVTVSSAKTTPPSVYPLAPGSAAQTNSMVTLGCLVKGYFPEPVTVTWNSGSLSSGVHTFPAVLQSDLYTLSSSVTVPSSTWPSETVTCNVAHPASSTKVDKKIVPRDCGCKPCICTVPEVSSVFIFPPKPKDVLTITLTPKVTCVVVDIMKDDPEVQFSWFVDDVEVHTAQTQPREEQFNSTFRSVSELPIMHQDWLNGKEFKCRVNSAAFPAPIEKTISKTKGRPKAPQVYTIPPPKEQMAKDKVSLTCMITDFFPEDITVEWQWNGQPAENYKNTQPIMDTDGSYFVYSKLNVQKSNWEAGNTFTCSVLHEGLHNHHTEKSLSHSPGK
light: not shown
notes: copies: 2 + 2
B8: H237-MB723/MRAL-k0 (antibody, mouse IgG1, kappa)
heavy: QVQLQESGPGLVKPSETLSLTCAVSGHSISHDHAWSWVRQPPGEGLEWIGFISYSGITNYNPSLQGRVTISRDNSKNTLYLQMNSLRAEDTAVYYCARSLARTTAMDYWGEGTLVTVSSAKTTPPSVYPLAPGSAAQTNSMVTLGCLVKGYFPEPVTVTWNSGSLSSGVHTFPAVLQSDLYTLSSSVTVPSSTWPSETVTCNVAHPASSTKVDKKIVPRDCGCKPCICEDYEEEDVFIFPPKPKDVLTITLTPKVTCVVVDISKDDPEVQFSWFVDDVEVHTAQTQPREEQFNSTFRSVSELPIMHQDWLNGKEFKCRVNSAAFPAPIEKTISKTKGRPKAPQVYTIPPPKEQMAKDKVSLTCMITDFFPEDITVEWQWNGQPAENYKNTQPIMDTDGSYFVYSKLNVQKSNWEAGNTFTCSVLHEGLHNHHTEKSLSHSPGK
light: not shown
notes: copies: 2 + 2

Assays:
Test in all cases: SPR (Biacore T200); KD of H237-mIgG1/MRAL-k0 / KD of variant
[1] = molecular target: T1, mouse FcγRIII extracellular domain, C-terminal His tag (mouse, UniProt P08508 31-215)
T1 construct: Whole entry named; also called mFcγRIII; mFcgRIII
T1 chain: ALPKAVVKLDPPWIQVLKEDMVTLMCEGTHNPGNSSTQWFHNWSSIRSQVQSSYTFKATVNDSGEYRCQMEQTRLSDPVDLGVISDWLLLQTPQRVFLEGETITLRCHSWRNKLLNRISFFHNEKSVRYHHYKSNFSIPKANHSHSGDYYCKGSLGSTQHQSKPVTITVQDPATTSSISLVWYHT

[2] = molecular target: T2, mouse FcγRII extracellular domain, C-terminal His tag (mouse, UniProt P08101 30-210)
T2 construct: Whole entry named; also called mFcγRII; mFcgRII
T2 sequence: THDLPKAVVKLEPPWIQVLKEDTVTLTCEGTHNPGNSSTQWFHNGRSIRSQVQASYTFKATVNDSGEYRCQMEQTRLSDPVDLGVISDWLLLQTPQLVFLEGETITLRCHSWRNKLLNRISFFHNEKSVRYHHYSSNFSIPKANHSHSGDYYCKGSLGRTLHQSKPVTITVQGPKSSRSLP

[3] = molecular target: T1, mouse FcγRIII extracellular domain, …
Excerpt: (§1) The antibody H chain variable region used was the variable region H237 (SEQ ID NO: 1) of the H chain VH3-IgG1 of the anti-IL-6 receptor antibody Fv4-IgG1 described in WO2009/125825. The antibody L chain commonly used was the L chain MRAL-k0 (SEQ ID NO: 2) of the anti-IL-6 receptor antibody tocilizumab. The aforementioned 11 variants were used as templates to introduce the alteration. These variants were expressed and purified by the method of Reference Example 1 and evaluated for their binding to mFcγRII and mFcγRIII by the method of Reference Example 2 using Biacore T200.
(§2) Each altered antibody was analyzed for its interaction with each Fcγ receptor prepared above using Biacore T100 (GE Healthcare Japan Corp.), Biacore T200 (GE Healthcare Japan Corp.), Biacore A100, or Biacore 4000. The running buffer used was HBS-EP+ (GE Healthcare Japan Corp.). The assay temperature was set to 25° C. The sensor chips used were chips prepared by immobilizing Protein L (ACTIGEN or BioVision) onto Series S Sensor Chip CM5 (GE Healthcare Japan Corp.) or Series S Sensor Chip CM4 (GE Healthcare Japan Corp.) by the amine coupling method.
(§3) In order to calculate the KD value of each altered antibody for FcγR, kinetic analysis was conducted according to the following method: first, the antibody of interest was captured onto any of these chips and allowed to interact with mFcγR diluted with a running buffer. For the obtained sensorgram, the assay results were globally fit into the 1:1 Langmuir binding model using Biacore Evaluation Software to calculate an association rate constant ka (L/mol/s) and a dissociation rate constant kd (1/s). From these values, the dissociation constant KD (mol/L) was calculated.

[4] = molecular target: T2, mouse FcγRII extracellular domain, …; remark: listed apart in the source
Excerpt: as §1, §2, §3

Row | Binder | relative mFcγRIII-binding activity (mIgG1 = 1) [1] | relative mFcγRII-binding activity (mIgG1 = 1) [2] | relative mFcγRIII-binding activity (mIgG1 = 1) [3] | relative mFcγRII-binding activity (mIgG1 = 1) [4]
1 | B1 | 0.36 fold | 0.95 fold |  | 
2 | B2 |  |  | 1.35 fold | 33.3 fold
3 | B3 | 0.28 fold | 0.37 fold |  | 
4 | B4 |  |  | 1.19 fold | 20.8 fold
5 | B5 |  |  | 1.39 fold | 24.3 fold
6 | B6 | 0.32 fold | 0.37 fold |  | 
7 | B7 | 0.26 fold | 0.4 fold |  | 
8 | B8 |  |  | 0.72 fold | 14.1 fold

— US20150203577A1 (Chugai, published 2015)
